Measurements reported in patent US12467929.

Legend:
[1] = molecular target: recombinant UBE3A protein (Homo sapiens (Human)) (UniProt Q05086); experiment: 2-step Simoa; capture Novus; UBE3A 0.01 ng/ml
[2] = molecular target: recombinant UBE3A protein (Homo sapiens (Human)) (UniProt Q05086); experiment: 2-step Simoa; capture Novus; UBE3A 0.1 ng/ml
[3] = molecular target: recombinant UBE3A protein (Homo sapiens (Human)) (UniProt Q05086); experiment: 2-step Simoa; capture MS 2F6; UBE3A 1 ng/ml
[4] = molecular target: recombinant UBE3A protein (Homo sapiens (Human)) (UniProt Q05086); experiment: 2-step Simoa; capture GTX; UBE3A 1 ng/ml
[5] = molecular target: recombinant UBE3A protein (Homo sapiens (Human)) (UniProt Q05086); experiment: 2-step Simoa; capture GTX; UBE3A 0.01 ng/ml
[6] = molecular target: recombinant UBE3A protein (Homo sapiens (Human)) (UniProt Q05086); experiment: 3-step Simoa; capture GTX; UBE3A 0.01 ng/ml
[7] = molecular target: recombinant UBE3A protein (Homo sapiens (Human)) (UniProt Q05086); experiment: 3-step Simoa; capture Novus; UBE3A 1 ng/ml
[8] = molecular target: recombinant UBE3A protein (Homo sapiens (Human)) (UniProt Q05086); experiment: 3-step Simoa; capture GTX; UBE3A 0.1 ng/ml
[9] = molecular target: recombinant UBE3A protein (Homo sapiens (Human)) (UniProt Q05086); experiment: 3-step Simoa; capture Novus; UBE3A 10 ng/ml
[10] = molecular target: recombinant UBE3A protein (Homo sapiens (Human)) (UniProt Q05086); experiment: 2-step Simoa; capture MS 2F6; UBE3A 0.01 ng/ml
[11] = molecular target: recombinant UBE3A protein (Homo sapiens (Human)) (UniProt Q05086); experiment: 2-step Simoa; capture Novus; UBE3A 10 ng/ml
[12] = molecular target: recombinant UBE3A protein (Homo sapiens (Human)) (UniProt Q05086); experiment: 3-step Simoa; capture Novus; UBE3A 0.01 ng/ml
[13] = molecular target: recombinant UBE3A protein (Homo sapiens (Human)) (UniProt Q05086); experiment: 3-step Simoa; capture Novus; UBE3A 0.1 ng/ml
[14] = molecular target: recombinant UBE3A protein (Homo sapiens (Human)) (UniProt Q05086); experiment: 3-step Simoa; capture GTX; UBE3A 1 ng/ml
[15] = molecular target: recombinant UBE3A protein (Homo sapiens (Human)) (UniProt Q05086); experiment: 3-step Simoa; capture GTX; UBE3A 10 ng/ml
[16] = molecular target: recombinant UBE3A protein (Homo sapiens (Human)) (UniProt Q05086); experiment: 2-step Simoa; capture GTX; UBE3A 10 ng/ml
[17] = molecular target: recombinant UBE3A protein (Homo sapiens (Human)) (UniProt Q05086); experiment: 3-step Simoa; capture MS 2F6; UBE3A 1 ng/ml
[18] = molecular target: recombinant UBE3A protein (Homo sapiens (Human)) (UniProt Q05086); experiment: 3-step Simoa; capture MS 2F6; UBE3A 0.1 ng/ml
[19] = molecular target: recombinant UBE3A protein (Homo sapiens (Human)) (UniProt Q05086); experiment: 3-step Simoa; capture MS 2F6; UBE3A 10 ng/ml
[20] = molecular target: recombinant UBE3A protein (Homo sapiens (Human)) (UniProt Q05086); experiment: 2-step Simoa; capture MS 2F6; UBE3A 0.1 ng/ml
[21] = molecular target: recombinant UBE3A protein (Homo sapiens (Human)) (UniProt Q05086); experiment: 2-step Simoa; capture MS 3E5; UBE3A 0.1 ng/ml
[22] = molecular target: recombinant UBE3A protein (Homo sapiens (Human)) (UniProt Q05086); experiment: 2-step Simoa; capture Novus; UBE3A 1 ng/ml
[23] = molecular target: recombinant UBE3A protein (Homo sapiens (Human)) (UniProt Q05086); experiment: 2-step Simoa; capture MS 2F6; UBE3A 10 ng/ml

UniProt Q05086, sequence (Q05086 whole entry): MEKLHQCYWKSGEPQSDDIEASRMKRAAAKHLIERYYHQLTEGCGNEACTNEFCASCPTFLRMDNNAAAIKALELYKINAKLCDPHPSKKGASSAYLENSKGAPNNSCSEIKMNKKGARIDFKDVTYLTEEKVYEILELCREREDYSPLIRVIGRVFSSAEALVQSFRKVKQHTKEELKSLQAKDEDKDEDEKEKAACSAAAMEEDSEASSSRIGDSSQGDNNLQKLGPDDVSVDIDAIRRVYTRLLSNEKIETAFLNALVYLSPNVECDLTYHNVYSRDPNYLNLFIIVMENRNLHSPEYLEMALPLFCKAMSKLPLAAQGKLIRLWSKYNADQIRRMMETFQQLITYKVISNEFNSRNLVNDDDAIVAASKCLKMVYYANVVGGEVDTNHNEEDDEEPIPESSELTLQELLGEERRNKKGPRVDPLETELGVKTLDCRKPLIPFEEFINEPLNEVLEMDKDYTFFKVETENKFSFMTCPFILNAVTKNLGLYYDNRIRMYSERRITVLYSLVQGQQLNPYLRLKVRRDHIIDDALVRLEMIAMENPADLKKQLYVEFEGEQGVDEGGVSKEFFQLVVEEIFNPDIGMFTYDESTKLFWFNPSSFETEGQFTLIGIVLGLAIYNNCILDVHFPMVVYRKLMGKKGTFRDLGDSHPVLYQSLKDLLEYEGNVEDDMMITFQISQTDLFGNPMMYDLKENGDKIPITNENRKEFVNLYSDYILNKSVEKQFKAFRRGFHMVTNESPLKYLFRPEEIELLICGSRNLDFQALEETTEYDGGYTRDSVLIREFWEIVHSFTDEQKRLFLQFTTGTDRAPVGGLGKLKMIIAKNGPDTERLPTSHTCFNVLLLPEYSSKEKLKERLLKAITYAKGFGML

AEB1 [1]: 0.0255
AEB2 [1]: 0.0175
Ave AEB [1]: 0.0215
Signal to Background [1]: 1.29
AEB1 [2]: 0.0167
AEB2 [2]: 0.0132
Ave AEB [2]: 0.0149
Signal to Background [2]: 0.9
AEB1 [3]: 0.0212
AEB2 [3]: 0.0206
Ave AEB [3]: 0.0209
Signal to Background [3]: 1.27
AEB1 [4]: 0.0247
AEB2 [4]: 0.0237
Ave AEB [4]: 0.0242
Signal to Background [4]: 3.26
AEB1 [5]: 0.0082
AEB2 [5]: 0.0072
Ave AEB [5]: 0.0077
Signal to Background [5]: 1.04
AEB1 [6]: 0.0064
AEB2 [6]: 0.0053
Ave AEB [6]: 0.0059
Signal to Background [6]: 0.96
AEB1 [7]: 0.0125
AEB2 [7]: 0.0145
Ave AEB [7]: 0.0135
Signal to Background [7]: 1.29
AEB1 [8]: 0.005
AEB2 [8]: 0.0068
Ave AEB [8]: 0.0059
Signal to Background [8]: 0.97
AEB1 [9]: 0.0168
AEB2 [9]: 0.0179
Ave AEB [9]: 0.0173
Signal to Background [9]: 1.65
AEB1 [10]: 0.0183
AEB2 [10]: 0.0162
Ave AEB [10]: 0.0172
Signal to Background [10]: 1.05
AEB1 [11]: 0.0441
AEB2 [11]: 0.0461
Ave AEB [11]: 0.0451
Signal to Background [11]: 2.71
AEB1 [12]: 0.011
AEB2 [12]: 0.0112
Ave AEB [12]: 0.0111
Signal to Background [12]: 1.06
AEB1 [13]: 0.014
AEB2 [13]: 0.0114
Ave AEB [13]: 0.0127
Signal to Background [13]: 1.21
AEB1 [14]: 0.0097
AEB2 [14]: 0.0091
Ave AEB [14]: 0.0094
Signal to Background [14]: 1.54
AEB1 [15]: 0.0356
AEB2 [15]: 0.0426
Ave AEB [15]: 0.0391
Signal to Background [15]: 6.42
AEB1 [16]: 0.126
AEB2 [16]: 0.13
Ave AEB [16]: 0.128
Signal to Background [16]: 17.3
AEB1 [17]: 0.0095
AEB2 [17]: 0.009
Ave AEB [17]: 0.0092
Signal to Background [17]: 1.06
AEB1 [18]: 0.0107
AEB2 [18]: 0.0084
Ave AEB [18]: 0.0095
Signal to Background [18]: 1.1
AEB1 [19]: 0.0153
AEB2 [19]: 0.0116
Ave AEB [19]: 0.0134
Signal to Background [19]: 1.54
AEB1 [20]: 0.0164
AEB2 [20]: 0.0185
Ave AEB [20]: 0.0175
Signal to Background [20]: 1.06
AEB1 [21]: 0.009
AEB2 [21]: 0.0091
Ave AEB [21]: 0.009
Signal to Background [21]: 1.21
AEB1 [22]: 0.0174
AEB2 [22]: 0.0179
Ave AEB [22]: 0.0177
Signal to Background [22]: 1.06
AEB1 [23]: 0.0437
AEB2 [23]: 0.0449
Ave AEB [23]: 0.0443
Signal to Background [23]: 2.7
Substance: NB500-240 (Novus) (antibody)
